Common to all, as to details: both partners purified
The target of test [1] is T1, soluble human BAFF (aa 134-285) N242A (human, UniProt Q9Y275 134-285, N242A).
T1 construct: also called BAFF N242A; source: E. coli BL21 (DE3), purified as described for wild-type BAFF; not shown: His6, N-terminal, cleaved
Description: SPR; about 1000 RU of belimumab Fab immobilised on a CM-5 chip by amine coupling; BAFF wild type or mutant flowed at 2 to 250 nM; 20 mM sodium citrate pH 5.6, 200 mM NaCl; 25 °C; BIAcore T100; sensorgrams locally fitted; in duplicate. In general terms: In SPR one partner is held on a chip, and binding of the other changes the refractive index at the surface.

Test [2] addresses T2, soluble human BAFF (aa 134-285) R265A (human, UniProt Q9Y275 134-285, R265A).
T2 construct: also called BAFF R265A; source: E. coli BL21 (DE3), purified as described for wild-type BAFF; not shown: His6, N-terminal, cleaved
Described as above.

Test [3] deals with T3, soluble human BAFF (aa 134-285) E266A (human, UniProt Q9Y275 134-285, E266A).
T3 construct: also called BAFF E266A; source: E. coli BL21 (DE3), purified as described for wild-type BAFF; not shown: His6, N-terminal, cleaved
The test is described as above.

Test [4] deals with T4, soluble human BAFF (aa 134-285) Y163A (human, UniProt Q9Y275 134-285, Y163A).
T4 construct: also called BAFF Y163A; source: E. coli BL21 (DE3), purified as described for wild-type BAFF; not shown: His6, N-terminal, cleaved
The test is described as above.

In test [5] the target is T5, soluble human BAFF (aa 134-285) Y206A (human, UniProt Q9Y275 134-285, Y206A).
T5 construct: also called BAFF Y206A; source: E. coli BL21 (DE3), purified as described for wild-type BAFF; not shown: His6, N-terminal, cleaved
The test is described as above.

For test [6], the target named is T6, soluble human BAFF (aa 134-285) D222A (human, UniProt Q9Y275 134-285, D222A).
T6 construct: also called BAFF D222A; source: E. coli BL21 (DE3), purified as described for wild-type BAFF; not shown: His6, N-terminal, cleaved
The description is as above.

For test [7], the target named is T7, soluble human BAFF (aa 134-285) L224A (human, UniProt Q9Y275 134-285, L224A).
T7 construct: also called BAFF L224A; source: E. coli BL21 (DE3), purified as described for wild-type BAFF; not shown: His6, N-terminal, cleaved
The description is as above.

The target of test [8] is T8, soluble human BAFF (aa 134-285) R231A (human, UniProt Q9Y275 134-285, R231A).
T8 construct: also called BAFF R231A; source: E. coli BL21 (DE3), purified as described for wild-type BAFF; not shown: His6, N-terminal, cleaved
The description is as above.

For test [9], the target named is T9, soluble human BAFF (aa 134-285) I233A (human, UniProt Q9Y275 134-285, I233A).
T9 construct: also called BAFF I233A; source: E. coli BL21 (DE3), purified as described for wild-type BAFF; not shown: His6, N-terminal, cleaved
Described as above.

Test [10] has as its target T10, soluble human BAFF (aa 134-285) L240A (human, UniProt Q9Y275 134-285, L240A).
T10 construct: also called BAFF L240A; source: E. coli BL21 (DE3), purified as described for wild-type BAFF; not shown: His6, N-terminal, cleaved
Described as above.

The target of test [11] is T11, soluble form of human BAFF (aa 134–285) (human, UniProt Q9Y275).
T11 construct: Cloned in pET-28a; On gel filtration it runs as trimer and as 60-mer (20 trimers); the trimer fractions were collected; also called BLyS; source: E. coli BL21 (DE3), purified (HisTrap, thrombin cleavage, gel filtration; trimer fractions collected); not shown: His6, N-terminal, cleaved
In words: SEC; analytical gel filtration, Superdex 200 Increase 10/300 GL, 20 mM HEPES pH 7.0, 200 mM NaCl; BAFF alone, Fab alone, and BAFF incubated 1 h with an excess of Fab. A general note: In gel filtration, larger molecules generally elute earlier.

For orientation: Kd means the concentration at which binding is half-saturated. A high value points to a looser complex. As a reminder, the koff is a measure of how fast the partners let go of each other. Lower therefore signals slow dissociation. Broadly, the kon is the rate constant with which the complex forms. The low end stands for slower complex formation, the high end for faster complex formation. As usually defined, the stoichiometry N is a count of units in the complex or per binding partner.

B1: belimumab Fab (Fab, V domains shown)
VH: QVQLQQSGAEVKKPGSSVRVSCKASGGTFNNNAINWVRQAPGQGLEWMGGIIPMFGTAKYSQNFQGRVAITADESTGTASMELSSLRSEDTAVYYCARSRDLLLFPHHALSPWGRGTMVTVSS
VL: SSELTQDPAVSVALGQTVRVTCQGDSLRSYYASWYQQKPGQAPVLVIYGKNNRPSGIPDRFSGSSSGNTASLTITGAQAEDEADYYCSSRDSSGNHWVFGGGTELTVLG
notes: followed by HHHHHH (the tag); Fab of a fully human IgG1 lambda antibody; also called belimumab Fab fragment; Benlysta Fab; source: E. coli Top10F, periplasmic expression, purified (HisTrap, gel filtration)
On to B1, for which the Kd in test [1] turned out to be 1.22 nM; in [2], 3.79 nM; in [3] it was 2.34 nM; in [4], 1.45 nM; in test [5] it was 14.1 nM; in [6] it was 4.34 nM. For the same molecule, the Kd in [7] came out at 7.77 nM; in test [8], 2.85 nM; in test [9], 2.64 nM; in test [10] it was 1.45 nM. The koff in [1] was 0.000167 s⁻¹; in test [2], 5.59e-05 s⁻¹; in test [3], 0.000245 s⁻¹; in test [4] it was 0.000137 s⁻¹; in test [5], 0.00783 s⁻¹; in [6] it was 0.000357 s⁻¹. Besides, the dissociation rate constant (koff) in test [7] worked out at 0.00119 s⁻¹; in test [8] it was 0.000128 s⁻¹; in test [9] it was 0.000328 s⁻¹; in test [10] it was 0.000145 s⁻¹. Also, the on-rate (kon) in [1] came out at 137000 M⁻¹ s⁻¹; in test [2], 14800 M⁻¹ s⁻¹; in test [3], 105000 M⁻¹ s⁻¹; in test [4], 94400 M⁻¹ s⁻¹; in test [5], 556000 M⁻¹ s⁻¹; in test [6], 82200 M⁻¹ s⁻¹. In addition, the on-rate constant (kon) in [7] was found to be 153000 M⁻¹ s⁻¹; in test [8] it was 45000 M⁻¹ s⁻¹; in test [9], 124000 M⁻¹ s⁻¹; in test [10], 101000 M⁻¹ s⁻¹.

B2: belimumab Fab (Fab, V domains shown)
VH: B1 VH
VL: SSELTQDPAVSVALGQTVRVTCQGDSLRSYYASWYQQKPGQAPVLVIYGKNNRPSGIPDRFSGSSSGNTASLTITGAQAEDEADYYCSSRDSSGNHWVFGGGTELTVL
notes: heavy chain of the Fab of belimumab (fully human IgG1 lambda); in the deposited structures PDB 5Y9J and 5Y9K; lambda light chain of belimumab; also called Benlysta; belimumab Fab fragment; source: E. coli Top10F, periplasmic expression, purified (HisTrap, gel filtration)
Take B2: the “stoichiometry N” value in test [11] is 1 BAFF protomer per Fab (printed 3:3).

The record behind these values is paper PMC5865148 (Nature Communications, 2018).
